The record followed here is patent US7629437 (University of California, dated 2009).

*: point of attachment. CH2Cl = ClC*

Holding throughout (experiment): cell-based or functional assay
The target of test [1] is Recombinant human βII tryptase (human, singly N-glycosylated (non- and single-glycosylation forms observed)).
Test [2] deals with Human thrombin (human, UniProt P00734 328-622).
The target in test [3] is Recombinant human βI tryptase (human, UniProt Q15661 31-275, N-glycosylated (non-, single-, double- and hyper-glycosylation forms observed)).
Test [4] concerns the target Factor Xa.
For test [5], the target named is tissue-type plasminogen activator (UniProt P00750 36-562, limits assumed).
In test [6] the target is urokinase plasminogen activator (UniProt P00749 21-431, limits assumed).
For test [7], the target named is Human plasmin (human, UniProt P00747 97-810, limits assumed).
Sequence of Human plasmin (P00747 97-810 limits assumed): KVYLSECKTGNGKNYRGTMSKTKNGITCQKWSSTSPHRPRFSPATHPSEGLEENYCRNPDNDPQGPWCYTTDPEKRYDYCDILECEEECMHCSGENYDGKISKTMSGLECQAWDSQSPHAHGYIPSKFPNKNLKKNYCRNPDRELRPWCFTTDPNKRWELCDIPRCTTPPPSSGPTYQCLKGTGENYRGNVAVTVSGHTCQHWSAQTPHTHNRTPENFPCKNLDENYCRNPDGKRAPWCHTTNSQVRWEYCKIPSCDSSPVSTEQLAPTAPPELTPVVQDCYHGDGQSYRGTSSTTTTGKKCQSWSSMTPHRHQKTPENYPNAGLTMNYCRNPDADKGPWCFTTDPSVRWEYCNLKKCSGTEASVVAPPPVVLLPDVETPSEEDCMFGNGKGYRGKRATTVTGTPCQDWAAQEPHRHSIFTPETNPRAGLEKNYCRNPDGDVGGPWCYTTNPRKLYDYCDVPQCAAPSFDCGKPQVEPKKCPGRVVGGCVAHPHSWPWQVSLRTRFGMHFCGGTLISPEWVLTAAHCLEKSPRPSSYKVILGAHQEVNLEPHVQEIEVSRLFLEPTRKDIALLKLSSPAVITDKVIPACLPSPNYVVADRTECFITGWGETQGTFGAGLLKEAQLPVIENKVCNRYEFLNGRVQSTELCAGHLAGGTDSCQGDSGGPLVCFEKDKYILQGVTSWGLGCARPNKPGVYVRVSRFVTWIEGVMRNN

Sequence of Recombinant human βI tryptase (Q15661 31-275): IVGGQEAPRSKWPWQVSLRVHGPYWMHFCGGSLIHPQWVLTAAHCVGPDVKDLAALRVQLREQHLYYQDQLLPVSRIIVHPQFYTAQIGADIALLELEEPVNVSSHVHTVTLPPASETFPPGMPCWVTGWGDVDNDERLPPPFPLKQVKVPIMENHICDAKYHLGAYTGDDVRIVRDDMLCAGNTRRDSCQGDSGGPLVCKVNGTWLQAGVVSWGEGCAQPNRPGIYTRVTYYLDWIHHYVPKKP
Sequence of Recombinant human βII tryptase (human, singly N-glycosylated (non- and single-glycosylation forms observed)) (chain, as listed by the source): as the sequence (Q15661 31-275) above, with N102K counted along it
Sequence of tissue-type plasminogen activator (P00750 36-562 limits assumed): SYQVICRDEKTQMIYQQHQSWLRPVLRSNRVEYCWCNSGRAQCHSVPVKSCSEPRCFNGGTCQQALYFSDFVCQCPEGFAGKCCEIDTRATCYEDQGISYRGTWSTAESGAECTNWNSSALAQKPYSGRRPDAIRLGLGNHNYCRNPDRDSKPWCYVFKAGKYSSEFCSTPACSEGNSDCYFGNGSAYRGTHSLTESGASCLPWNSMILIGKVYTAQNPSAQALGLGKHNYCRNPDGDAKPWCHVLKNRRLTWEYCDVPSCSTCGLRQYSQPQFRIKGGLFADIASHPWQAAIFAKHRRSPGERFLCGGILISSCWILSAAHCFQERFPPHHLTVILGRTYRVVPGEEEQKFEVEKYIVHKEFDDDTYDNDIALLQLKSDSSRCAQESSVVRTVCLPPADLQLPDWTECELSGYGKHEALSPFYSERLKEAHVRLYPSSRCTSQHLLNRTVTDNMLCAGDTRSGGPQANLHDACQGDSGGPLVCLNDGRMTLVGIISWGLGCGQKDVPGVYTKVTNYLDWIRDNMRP

B1: Ac-PRNK-cmk (peptide)
peptide: Ac-PRNK-CH2Cl
SMILES: CC(=O)N1CCC[C@H]1C(=O)N[C@@H](CCCNC(=N)N)C(=O)N[C@@H](CC(N)=O)C(=O)N[C@@H](CCCCN)C(=O)CCl
Consider B1, for which the “Percent Inhibition, 10 µM Ac-PRNK-cmk” value in test [1] stood at 95%; in test [2], 0%; in test [3], 95%; in test [4], 0%; in test [5] it was 0%; in test [6], 0%. Moreover, the “Percent Inhibition, 10 µM Ac-PRNK-cmk” value in test [7] worked out at 0%. In addition, the “Percent Inhibition, 100 µM Ac-PRNK-cmk” value was found to be 100% in test [1]; 0% in test [2]; 100% in test [3]; 0% in test [4]; 0% in test [5]; 34% in test [6]. Further, the “Percent Inhibition, 100 µM Ac-PRNK-cmk” value in test [7] was 63%.
